Here are results for two molecules from patent CN115894698A (SHAANXI MYBIOTECH CO LTD, dated 2023).

The target of assay [1] is T1, CHI3L1-6his(pcDNA3.1，在293T细胞中过表达的完整人CHI3L1) (human, UniProt P36222 22-383).
T1 construct: whole, on cells; CBA / immunofluorescence target: transfected, acetone-fixed 293T cells; also called 完整CHI3L1序列; 过表达CHI3L1蛋白的细胞; not shown: 6his tag
The experiment in a line: CBA, immunofluorescence on acetone-fixed 293T cells overexpressing CHI3L1-6his.

Assay [2] deals with T2, Q CHI3L1-329-346-6his(缺失329-346片段的CHI3L1构建体) (human, UniProt P36222 22-383).
T2 construct: Deletion construct, overexpressed in 293T cells from pcDNA3.1, acetone-fixed; not shown: 6his tag
Nature of the assay: immunofluorescence on transfected, acetone-fixed 293T cells.

Assay [3] has as its target T1, CHI3L1-6his(pcDNA3.1，在293T细胞中过表达的完整人CHI3 …. The assay is described as above.

B1: 人CHI3L1单克隆抗体1D7(杂交瘤细胞1D7-C5-D5培养上清) (antibody, V domains shown)
VH: EVQLLETGGGLVQPGGSRGLSCEGSGFTFSGFWMSWVRQTPGKTLEWIGDINSDGSTINYAPSIKDRFTIFRDNDKSTLYLQMSNVRSEDTATYFCMRYKGAHWGQGTLVTVSA
VL: not shown
notes: Tested as culture supernatant; also called 1D7杂交瘤细胞上清; 阳性杂交瘤细胞上清
Turning to B1, in assay [1], the binding result is on record as “binds”.

B2: 重组单克隆抗体1D7(1D7m2a + 1D7mk，293T细胞上清) (antibody, V domains shown)
VH: B1 VH
VL: not shown
notes: VH cloned into pFUSE-CHIg-m2a (mouse IgG2a constant region of the vector), VL into pFUSE2ss-CLIg-mk (mouse kappa); Tested as 293T culture supernatant; also called 重组1D7单克隆抗体; 重组单克隆细胞上清
Turning to B2, the binding result in assay [2] is “no binding”; in assay [3], “binds”.
